Source: patent publication US5543308

Assays:
[1] = tested on: FseI restriction endonuclease (from pRMFseR1, NEB#918, His at position 2) T2H (Frankia species NRRL 18528); experiment: cleavage_in_vitro; details: crude extract, NEBuffer 1, 30 C, 1 h; estimated titer
[2] = tested on: FseI restriction endonuclease (from pRMFseR2, NEB#943, ATCC 69707) (Frankia species NRRL 18528); experiment: cleavage_in_vitro; details: crude extract; estimated titer; substrate inferred from section 7

Substance: Adenovirus-2 DNA
- activity (units/g cells) [1]: > 10000
- activity (units/g cells) [2]: > 10000
